Reference: patent US20230399390A1 (NOVAGO THERAPEUTICS, published 2023)

How the values were obtained:
[1] = biological target: T1, human Nogo-A d20plus region (human aa position 543-866), recombinantly produced in E. coli (human, UniProt Q9NQC3 543-866); test: ELISA, coated d20plus (human, as read from the context), internal standard
T1 construct: range 543-866; also called human d20plus; hu d20+
T1 sequence (looked up): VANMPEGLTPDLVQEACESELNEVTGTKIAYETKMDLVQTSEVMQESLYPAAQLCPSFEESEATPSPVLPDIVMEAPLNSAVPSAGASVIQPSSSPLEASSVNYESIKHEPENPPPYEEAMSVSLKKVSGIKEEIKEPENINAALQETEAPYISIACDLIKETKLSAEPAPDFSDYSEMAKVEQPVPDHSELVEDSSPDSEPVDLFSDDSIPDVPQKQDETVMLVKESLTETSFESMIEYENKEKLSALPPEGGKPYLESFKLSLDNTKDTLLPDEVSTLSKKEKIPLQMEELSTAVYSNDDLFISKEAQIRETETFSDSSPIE

[2] = biological target: T2, rat Nogo-A d20plus region, recombinantly produced in E. coli (rat, UniProt Q9JK11 520-843, limits assumed); test: ELISA, coated rat d20plus
T2 construct: domain: d20plus; also called rat d20plus; rat peptide d20plus
T2 sequence (looked up): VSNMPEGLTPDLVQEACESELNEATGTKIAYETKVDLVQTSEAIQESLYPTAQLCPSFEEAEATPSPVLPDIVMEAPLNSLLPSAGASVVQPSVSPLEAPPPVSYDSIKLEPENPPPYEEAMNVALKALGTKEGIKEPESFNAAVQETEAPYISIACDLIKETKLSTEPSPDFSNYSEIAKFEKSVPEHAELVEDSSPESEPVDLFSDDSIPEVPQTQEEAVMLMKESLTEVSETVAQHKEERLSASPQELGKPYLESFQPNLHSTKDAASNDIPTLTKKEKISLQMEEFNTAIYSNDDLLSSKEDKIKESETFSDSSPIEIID
From the text: (§1) The neurite outgrowth inhibitor Nogo-A contains 3 inhibitory regions. Two are shared with the splice variant Nogo-B (Nogo-66 located between the two transmembrane regions and the NIR domain at the tip of the N-terminus) and one is shared with the splice variant Nogo-C (Nogo-66). The unique, highly inhibitory domain for neurite outgrowth of Nogo-A is located in the exon 3 of Nogo-A and is called delta 20 region (d20; human aa position 566-748) (Oertle et al., J. Neurosci. 23 (2003), 5393-5406). To confirm the binding properties of antibodies NG004 NG034 and to monitor for cross-reactivity to other species like rat, an ELISA with a fragment containing the d20 region plus some additional amino acids C- and N-terminal of the inhibitory region (human aa position 543-866) was performed. This fragment is called rat or human d20plus and is recombinantly produced in E. coli. To examine that the antibody binds strongly to the d20plus region and to compare the binding properties of the subject antibodies NG004 and NG034 to the already known antibodies (11C7 and Ozanezumab) the ELISA was used and EC₅₀ values were compared.
(§2) The ELISA is performed according to a standard protocol (Engvall & Perlmann, J. Immunol. 109 (1972), 129-135, Engvall & Perlmann, Immunochemistry 8 (1971), 871-874). […] The readouts are performed on the Tecan Sparc plate reader.

[3] = biological target: T1, human Nogo-A d20plus region (human aa …); test: ELISA, coated human d20plus
From the text: as §1, §2

[4] = biological target: T1, human Nogo-A d20plus region (human aa …); test: ELISA, plate coated with 3 ug/ml human d20plus
From the text: as §1, §2

[5] = biological target: T3, peptide 36: 141-INAALQETEAPYISI-155 (human); test: pepscan, 15-mer peptides on nitrocellulose, NG004 at 1 ug/ml
T3 construct: Spotted on a nitrocellulose membrane; The range counts on the d20plus region; also called spot 36
T3 peptide: INAALQETEAPYISI
Procedure: (§3) Epitope mapping of NG004 was performed using scans of overlapping peptides. The sequences of the d20plus region of Nogo-A (aa 543-866 of human Nogo-A) were synthesized as linear 15-mer peptides with an 11 amino acid overlap between individual peptides. Those peptides were spotted onto nitrocellulose membranes (JPT Peptide Technologies, Berlin, Germany). The membrane was activated for 5 min in methanol and washed in TBS for 10 min at RT. Non-specific binding sites were blocked for 2 hours at RT with Roti®-Block (Carl Roth GmbH+Co. KG, Karlsruhe, Germany). NG004 (1 μg/ml) was incubated in Roti®-Block for 3 h at room temperature. Binding of primary antibody was determined using HRP-conjugated donkey anti-human IgG secondary antibody. Blots were developed and evaluated using ECL and ImageQuant 350 detection (GE Healthcare, Otelfingen, Switzerland).

[6] = biological target: T4, peptide 34: 133-EEIKEPENINAALQE-147 (human); test: as above
T4 construct: Spotted on a nitrocellulose membrane; The range counts on the d20plus region, not on full-length Nogo-A; also called spot 34
T4 peptide: EEIKEPENINAALQE
Procedure: as §3

[7] = biological target: T5, peptide 35: 137-EPENINAALQETEAP-151 (human); test: as above
T5 construct: Spotted on a nitrocellulose membrane; The range counts on the d20plus region; also called spot 35
T5 peptide: EPENINAALQETEAP
Procedure: as §3

B1: Ozanezumab (antibody, V domains shown)
VH: QVQLVQSGAEVKKPGASVKVSCKASGYTFTSYWMHWVRQAPGQGLEWIGNINPSNGGTNYNEKFKSKATMTRDTSTSTAYMELSSLRSEDTAVYYCELMQGYWGQGTLVTVSS
VL: DIVMTQSPLSNPVTLGQPVSISCRSSKSLLYKDGKTYLNWFLQRPGQSPQLLIYLMSTRASGVPDRFSGGGSGTDFTLKISRVEAEDVGVYYCQQLVEYPLTFGQGTKLEIK
B1 was tested. Which EC50 [1] did it give?
Its EC50 is 200 pM.

B2: anti-Nogo-A specific human antibody NG034 (antibody, V domains shown)
VH: EVQLVETGGGLVPPGGSLRLSCAASGFTFTNYSMHWVRLAPGKRLEYISAISSDGGDPFYASSVKGRVAISRDNSKKTLYLQMGRLRPEDTAVYYCVSDAFDVWGQGTMVTVSS
VL: EIVLTQSPLSLSVTLGQPASISCRSSQSLLYSNGNTYLNWFQQRPGQSPRRLLYRVSNRDSGVPDRFSGSGSGTHFTLKISRVEAEDVGVYYCMQGTHWPRTFGQGTKVEIK
B2 was tested. Which EC50 [2] did it give?
The EC50 was 229 pM.

And the EC50 [3]?
Its EC50 is 298 pM.

B3: anti-Nogo-A specific human antibody NG004 (antibody, V domains shown)
VH: EVQLVESGGGVVQPGRSLRLSCAASGFTFRSHAMHWVRQAPGKGLEWVAVTSYDGTNKYYADSVKGRFTISKDNSKNTLYLQMDSLRVEDTAVYYCARGRAVAGTREDYWGQGTLVTVSS
VL: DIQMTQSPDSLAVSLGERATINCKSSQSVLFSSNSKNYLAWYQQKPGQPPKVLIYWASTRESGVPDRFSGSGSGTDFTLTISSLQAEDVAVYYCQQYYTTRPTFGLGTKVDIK
notes: The neurite outgrowth assay used NG004.h4.m1 (human IgG4 S228P) and NG004.m1 (mouse IgG1); also called NG004.m1; NG004.h4.m1
How did the EC50 [4] turn out when B3 was run?
The EC50 was 260 pM.

Does B3 bind [5]?
Result: binds

Does B3 bind [6]?
Result: binds

Does B3 bind [7]?
Result: binds
